Data reported in patent US8242083B2, “Kinase substrates” (PerkinElmer Health Sciences, Inc., priority 2008, dated 2012).

Tests used:
Format in all cases: biochemical
[1] = biological target: T1, CTK (Homo sapiens, UniProt P42679); test: TR-FRET kinase assay, CTK; settings: Kinase Concentration 20 nM; 50 nM ULight-labeled substrate, 200 micromolar ATP, 2 hours
T1 sequence (P42679 1-507): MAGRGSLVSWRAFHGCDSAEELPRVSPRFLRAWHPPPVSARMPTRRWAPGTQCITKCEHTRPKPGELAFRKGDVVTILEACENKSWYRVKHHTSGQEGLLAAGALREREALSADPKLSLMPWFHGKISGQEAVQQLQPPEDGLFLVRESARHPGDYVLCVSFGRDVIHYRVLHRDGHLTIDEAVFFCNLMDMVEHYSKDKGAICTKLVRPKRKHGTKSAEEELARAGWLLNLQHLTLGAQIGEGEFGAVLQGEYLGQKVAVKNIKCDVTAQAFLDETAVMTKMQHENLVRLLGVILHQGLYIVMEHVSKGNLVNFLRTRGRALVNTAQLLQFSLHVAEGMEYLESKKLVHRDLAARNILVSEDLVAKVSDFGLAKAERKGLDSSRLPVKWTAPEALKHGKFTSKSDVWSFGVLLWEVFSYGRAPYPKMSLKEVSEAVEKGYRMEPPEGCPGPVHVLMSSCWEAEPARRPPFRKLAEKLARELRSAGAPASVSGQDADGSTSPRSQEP
Procedure: (§1) TR-FRET kinase assays are performed under standardized conditions: various individual kinases are incubated with 50 nM of kinase substrate BRB1 labeled with the TR-FRET acceptor dye ULight (PerkinElmer) and 200 micromolar ATP in 10 μL of kinase assay buffer (50 mM HEPES pH7.5, 10 mM MgCl2, 3 mM MnCl2, 1 mM EGTA, 2 mM DTT and 0.01% Tween-20) for 2 hours at room temperature. Reactions are stopped with EDTA, and anti-phospho-tyrosine antibodies (clone PT66) labeled with the TR-FRET europium chelate donor dye are added to a final concentration of 2 nM in a final volume of 20 μL. The TR-FRET signal emitted at 665 nm is read one hour after the addition of antibodies using a TR-FRET plate reader such as the Envision® Multilabel Plate reader (PerkinElmer). The emitted signal at 665 nm is proportional to the extent of peptide phosphorylation, Control reactions indicative of background are performed excluding ATP from the reaction.
(§2) Assay conditions are identical to those used described for FIG. 1.

[2] = biological target: FYN (Homo sapiens, UniProt P06241); test: TR-FRET kinase assay, FYN; settings: Kinase Concentration 0.25 nM; 50 nM ULight-labeled substrate, 200 micromolar ATP, 2 hours
Chain of FYN (P06241 whole entry, species assumed): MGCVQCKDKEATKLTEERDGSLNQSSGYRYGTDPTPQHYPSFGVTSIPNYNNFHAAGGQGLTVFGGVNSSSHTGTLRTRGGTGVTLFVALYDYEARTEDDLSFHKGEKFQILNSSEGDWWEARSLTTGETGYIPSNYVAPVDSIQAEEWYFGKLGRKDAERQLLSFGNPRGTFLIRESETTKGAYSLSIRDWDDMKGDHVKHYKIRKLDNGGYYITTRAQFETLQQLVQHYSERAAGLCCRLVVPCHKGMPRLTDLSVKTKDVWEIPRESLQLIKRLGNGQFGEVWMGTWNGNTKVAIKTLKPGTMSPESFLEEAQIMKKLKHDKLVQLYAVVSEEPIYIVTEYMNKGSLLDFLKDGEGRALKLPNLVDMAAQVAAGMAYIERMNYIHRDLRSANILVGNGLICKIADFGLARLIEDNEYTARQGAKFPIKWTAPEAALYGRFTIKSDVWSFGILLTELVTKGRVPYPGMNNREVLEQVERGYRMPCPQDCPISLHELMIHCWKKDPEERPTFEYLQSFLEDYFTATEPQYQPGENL
Procedure: as §1, §2

[3] = biological target: T2, JAK3 (Homo sapiens, UniProt P52333); test: TR-FRET kinase assay, JAK3; settings: Kinase Concentration 0.5 nM; 50 nM ULight-labeled substrate, 200 micromolar ATP, 2 hours
T2 sequence (P52333 1-1124): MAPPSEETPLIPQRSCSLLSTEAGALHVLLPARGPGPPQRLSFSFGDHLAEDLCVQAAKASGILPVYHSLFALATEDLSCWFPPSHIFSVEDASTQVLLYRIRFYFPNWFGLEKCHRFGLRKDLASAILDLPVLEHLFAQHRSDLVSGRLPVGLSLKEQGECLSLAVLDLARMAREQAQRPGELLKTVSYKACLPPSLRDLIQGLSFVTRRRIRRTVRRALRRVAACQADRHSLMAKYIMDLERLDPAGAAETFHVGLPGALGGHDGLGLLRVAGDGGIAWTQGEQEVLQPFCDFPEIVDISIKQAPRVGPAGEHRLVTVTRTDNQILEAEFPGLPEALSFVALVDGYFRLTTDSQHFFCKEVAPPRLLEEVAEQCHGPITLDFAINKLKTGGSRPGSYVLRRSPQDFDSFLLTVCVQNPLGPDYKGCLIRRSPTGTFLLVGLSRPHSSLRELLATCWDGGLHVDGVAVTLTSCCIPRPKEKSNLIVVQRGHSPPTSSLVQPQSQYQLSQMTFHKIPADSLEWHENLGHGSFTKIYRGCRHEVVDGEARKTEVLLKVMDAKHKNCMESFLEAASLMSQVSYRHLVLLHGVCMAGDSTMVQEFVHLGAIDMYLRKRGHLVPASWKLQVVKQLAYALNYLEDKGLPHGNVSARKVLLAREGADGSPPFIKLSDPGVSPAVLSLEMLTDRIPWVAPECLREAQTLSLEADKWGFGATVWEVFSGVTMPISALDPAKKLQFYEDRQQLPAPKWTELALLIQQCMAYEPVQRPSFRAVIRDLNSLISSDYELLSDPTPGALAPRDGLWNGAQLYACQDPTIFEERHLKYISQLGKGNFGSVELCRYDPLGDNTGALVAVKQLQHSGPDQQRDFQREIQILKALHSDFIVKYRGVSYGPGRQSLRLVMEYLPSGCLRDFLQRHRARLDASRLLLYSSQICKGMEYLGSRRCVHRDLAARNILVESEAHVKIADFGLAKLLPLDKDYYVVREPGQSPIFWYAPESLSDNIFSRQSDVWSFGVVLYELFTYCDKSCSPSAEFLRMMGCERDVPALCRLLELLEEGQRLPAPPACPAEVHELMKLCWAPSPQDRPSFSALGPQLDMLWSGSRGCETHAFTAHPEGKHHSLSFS
Procedure: as §1, §2

[4] = biological target: LCK (Homo sapiens, UniProt P06239); test: TR-FRET kinase assay, LCK; settings: Kinase Concentration 0.5 nM; 50 nM ULight-labeled substrate, 200 micromolar ATP, 2 hours
Chain of LCK (P06239 whole entry, species assumed): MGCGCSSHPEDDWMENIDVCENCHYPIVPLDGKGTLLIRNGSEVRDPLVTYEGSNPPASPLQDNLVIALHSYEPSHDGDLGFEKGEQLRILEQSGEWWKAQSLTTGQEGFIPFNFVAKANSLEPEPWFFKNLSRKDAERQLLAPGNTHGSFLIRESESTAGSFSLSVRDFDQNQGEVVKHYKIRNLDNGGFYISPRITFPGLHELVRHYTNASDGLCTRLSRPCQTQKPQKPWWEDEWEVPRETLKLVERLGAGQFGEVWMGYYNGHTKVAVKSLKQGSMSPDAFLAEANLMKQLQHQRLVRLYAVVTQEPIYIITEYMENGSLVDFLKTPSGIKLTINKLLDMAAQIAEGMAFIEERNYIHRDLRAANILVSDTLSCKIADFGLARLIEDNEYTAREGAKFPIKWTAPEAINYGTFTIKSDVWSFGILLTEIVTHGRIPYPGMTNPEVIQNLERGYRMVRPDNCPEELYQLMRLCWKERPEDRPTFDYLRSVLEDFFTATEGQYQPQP
Procedure: as §1, §2

[5] = biological target: FGFR2 (Homo sapiens, UniProt P21802); test: TR-FRET kinase assay, FGFR2; settings: Kinase Concentration 0.25 nM; 50 nM ULight-labeled substrate, 200 micromolar ATP, 2 hours
Procedure: as §1, §2

C AYE AYE AYE K EYA EYA EYA K AYA EYE R (CAYEAYEAYEKEYAEYAEYAKAYAEYER; tyrosine kinase substrate peptide) [BRB1]
Signal to Noise ratio with BRB1 Peptide [1]: 2.5 | Signal to Noise ratio with BRB1 Peptide [2]: 25.9 | Signal to Noise ratio with BRB1 Peptide [3]: 16.1 | Signal to Noise ratio with BRB1 Peptide [4]: 12.3 | Signal to Noise ratio with BRB1 Peptide [5]: 27.1
